This is an account of results in patent US20220298218A1 (ANTAG THERAPEUTICS, published 2022).

To fix the notation:
B1: AT459 (peptide)
peptide: TFISDYKIAMDKIHQQDFVNWLLAQKGKKNDWK
HELM: PEPTIDE1{T.F.I.S.D.Y.K.I.A.M.D.K.I.H.Q.Q.D.F.V.N.W.L.L.A.Q.K.G.K.K.N.D.W.K}|PEPTIDE2{[O=C(O)CCCCCCCCCCCCCCC(=O)[*:2]].[gGlu]}$PEPTIDE1,PEPTIDE2,7:R3-2:R2$$$V2.0; N-terminus assumed
SMILES: CC[C@H](C)[C@H](NC(=O)[C@H](CCCCNC(=O)CC[C@H](NC(=O)CCCCCCCCCCCCCCC(=O)O)C(=O)O)NC(=O)[C@H](Cc1ccc(O)cc1)NC(=O)[C@H](CC(=O)O)NC(=O)[C@H](CO)NC(=O)[C@@H](NC(=O)[C@H](Cc1ccccc1)NC(=O)[C@@H](N)[C@@H](C)O)[C@@H](C)CC)C(=O)N[C@@H](C)C(=O)N[C@@H](CCSC)C(=O)N[C@@H](CC(=O)O)C(=O)N[C@@H](CCCCN)C(=O)N[C@H](C(=O)N[C@@H](Cc1c[nH]cn1)C(=O)N[C@@H](CCC(N)=O)C(=O)N[C@@H](CCC(N)=O)C(=O)N[C@@H](CC(=O)O)C(=O)N[C@@H](Cc1ccccc1)C(=O)N[C@H](C(=O)N[C@@H](CC(N)=O)C(=O)N[C@@H](Cc1c[nH]c2ccccc12)C(=O)N[C@@H](CC(C)C)C(=O)N[C@@H](CC(C)C)C(=O)N[C@@H](C)C(=O)N[C@@H](CCC(N)=O)C(=O)N[C@@H](CCCCN)C(=O)NCC(=O)N[C@@H](CCCCN)C(=O)N[C@@H](CCCCN)C(=O)N[C@@H](CC(N)=O)C(=O)N[C@@H](CC(=O)O)C(=O)N[C@@H](Cc1c[nH]c2ccccc12)C(=O)N[C@@H](CCCCN)C(=O)O)C(C)C)[C@@H](C)CC
B2: AT458 (peptide)
peptide: TFISDYKIAMDKIHQQDFVNWLLAQKGKKND
HELM: PEPTIDE1{T.F.I.S.D.Y.K.I.A.M.D.K.I.H.Q.Q.D.F.V.N.W.L.L.A.Q.K.G.K.K.N.D}|PEPTIDE2{[O=C(O)CCCCCCCCCCCCCCC(=O)[*:2]].[gGlu]}$PEPTIDE1,PEPTIDE2,7:R3-2:R2$$$V2.0; N-terminus assumed
SMILES: CC[C@H](C)[C@H](NC(=O)[C@H](CCCCNC(=O)CC[C@H](NC(=O)CCCCCCCCCCCCCCC(=O)O)C(=O)O)NC(=O)[C@H](Cc1ccc(O)cc1)NC(=O)[C@H](CC(=O)O)NC(=O)[C@H](CO)NC(=O)[C@@H](NC(=O)[C@H](Cc1ccccc1)NC(=O)[C@@H](N)[C@@H](C)O)[C@@H](C)CC)C(=O)N[C@@H](C)C(=O)N[C@@H](CCSC)C(=O)N[C@@H](CC(=O)O)C(=O)N[C@@H](CCCCN)C(=O)N[C@H](C(=O)N[C@@H](Cc1c[nH]cn1)C(=O)N[C@@H](CCC(N)=O)C(=O)N[C@@H](CCC(N)=O)C(=O)N[C@@H](CC(=O)O)C(=O)N[C@@H](Cc1ccccc1)C(=O)N[C@H](C(=O)N[C@@H](CC(N)=O)C(=O)N[C@@H](Cc1c[nH]c2ccccc12)C(=O)N[C@@H](CC(C)C)C(=O)N[C@@H](CC(C)C)C(=O)N[C@@H](C)C(=O)N[C@@H](CCC(N)=O)C(=O)N[C@@H](CCCCN)C(=O)NCC(=O)N[C@@H](CCCCN)C(=O)N[C@@H](CCCCN)C(=O)N[C@@H](CC(N)=O)C(=O)N[C@@H](CC(=O)O)C(=O)O)C(C)C)[C@@H](C)CC
B3: AT460 (peptide)
peptide: TFISDYKIAMDKIHQQDFVNWLLAQKGKKNDWKH
HELM: PEPTIDE1{T.F.I.S.D.Y.K.I.A.M.D.K.I.H.Q.Q.D.F.V.N.W.L.L.A.Q.K.G.K.K.N.D.W.K.H}|PEPTIDE2{[O=C(O)CCCCCCCCCCCCCCC(=O)[*:2]].[gGlu]}$PEPTIDE1,PEPTIDE2,7:R3-2:R2$$$V2.0; N-terminus assumed
SMILES: CC[C@H](C)[C@H](NC(=O)[C@H](CCCCNC(=O)CC[C@H](NC(=O)CCCCCCCCCCCCCCC(=O)O)C(=O)O)NC(=O)[C@H](Cc1ccc(O)cc1)NC(=O)[C@H](CC(=O)O)NC(=O)[C@H](CO)NC(=O)[C@@H](NC(=O)[C@H](Cc1ccccc1)NC(=O)[C@@H](N)[C@@H](C)O)[C@@H](C)CC)C(=O)N[C@@H](C)C(=O)N[C@@H](CCSC)C(=O)N[C@@H](CC(=O)O)C(=O)N[C@@H](CCCCN)C(=O)N[C@H](C(=O)N[C@@H](Cc1c[nH]cn1)C(=O)N[C@@H](CCC(N)=O)C(=O)N[C@@H](CCC(N)=O)C(=O)N[C@@H](CC(=O)O)C(=O)N[C@@H](Cc1ccccc1)C(=O)N[C@H](C(=O)N[C@@H](CC(N)=O)C(=O)N[C@@H](Cc1c[nH]c2ccccc12)C(=O)N[C@@H](CC(C)C)C(=O)N[C@@H](CC(C)C)C(=O)N[C@@H](C)C(=O)N[C@@H](CCC(N)=O)C(=O)N[C@@H](CCCCN)C(=O)NCC(=O)N[C@@H](CCCCN)C(=O)N[C@@H](CCCCN)C(=O)N[C@@H](CC(N)=O)C(=O)N[C@@H](CC(=O)O)C(=O)N[C@@H](Cc1c[nH]c2ccccc12)C(=O)N[C@@H](CCCCN)C(=O)N[C@@H](Cc1c[nH]cn1)C(=O)O)C(C)C)[C@@H](C)CC
B4: AT457 (peptide)
peptide: TFISDYKIAMDKIHQQDFVNWLLAQKGKKN
HELM: PEPTIDE1{T.F.I.S.D.Y.K.I.A.M.D.K.I.H.Q.Q.D.F.V.N.W.L.L.A.Q.K.G.K.K.N}|PEPTIDE2{[O=C(O)CCCCCCCCCCCCCCC(=O)[*:2]].[gGlu]}$PEPTIDE1,PEPTIDE2,7:R3-2:R2$$$V2.0; N-terminus assumed
SMILES: CC[C@H](C)[C@H](NC(=O)[C@H](CCCCNC(=O)CC[C@H](NC(=O)CCCCCCCCCCCCCCC(=O)O)C(=O)O)NC(=O)[C@H](Cc1ccc(O)cc1)NC(=O)[C@H](CC(=O)O)NC(=O)[C@H](CO)NC(=O)[C@@H](NC(=O)[C@H](Cc1ccccc1)NC(=O)[C@@H](N)[C@@H](C)O)[C@@H](C)CC)C(=O)N[C@@H](C)C(=O)N[C@@H](CCSC)C(=O)N[C@@H](CC(=O)O)C(=O)N[C@@H](CCCCN)C(=O)N[C@H](C(=O)N[C@@H](Cc1c[nH]cn1)C(=O)N[C@@H](CCC(N)=O)C(=O)N[C@@H](CCC(N)=O)C(=O)N[C@@H](CC(=O)O)C(=O)N[C@@H](Cc1ccccc1)C(=O)N[C@H](C(=O)N[C@@H](CC(N)=O)C(=O)N[C@@H](Cc1c[nH]c2ccccc12)C(=O)N[C@@H](CC(C)C)C(=O)N[C@@H](CC(C)C)C(=O)N[C@@H](C)C(=O)N[C@@H](CCC(N)=O)C(=O)N[C@@H](CCCCN)C(=O)NCC(=O)N[C@@H](CCCCN)C(=O)N[C@@H](CCCCN)C(=O)N[C@@H](CC(N)=O)C(=O)O)C(C)C)[C@@H](C)CC

The target in this experiment is T1, human GIP receptor (human, UniProt P48546 22-466).
T1 sequence (looked up): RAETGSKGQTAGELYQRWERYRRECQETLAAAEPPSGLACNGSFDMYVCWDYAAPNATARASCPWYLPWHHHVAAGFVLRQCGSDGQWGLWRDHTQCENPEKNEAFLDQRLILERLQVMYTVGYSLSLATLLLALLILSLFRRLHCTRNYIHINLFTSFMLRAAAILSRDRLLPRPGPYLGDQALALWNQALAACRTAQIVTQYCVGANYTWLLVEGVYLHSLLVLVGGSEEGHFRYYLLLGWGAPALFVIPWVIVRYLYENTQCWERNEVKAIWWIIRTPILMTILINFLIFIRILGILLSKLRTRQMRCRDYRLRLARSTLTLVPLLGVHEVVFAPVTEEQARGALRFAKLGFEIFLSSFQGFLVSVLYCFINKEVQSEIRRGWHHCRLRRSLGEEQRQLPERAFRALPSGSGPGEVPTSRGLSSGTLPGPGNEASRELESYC
Description: cell-based or functional assay.
Regarding B1, the “cAMP antagonism” value was 31 nM, the “cAMP antagonism % inhib” value came out at 88% and the cAMP antagonism log was -7.5 log M.

As to B2, the “cAMP antagonism” value worked out at 38 nM, the “cAMP antagonism % inhib” value turned out to be 100% and the cAMP antagonism log was -7.4 log M.

As for B3, the “cAMP antagonism” value stood at 40 nM, the “cAMP antagonism % inhib” value was determined as 100% and the cAMP antagonism log is -7.4 log M.

Turning to B4, the “cAMP antagonism” value is 14 nM, the “cAMP antagonism % inhib” value came out at 100% and the cAMP antagonism log is -7.9 log M.
